Our source for the protein stability index values is the supplement of paper PMC10567573.

± gives the standard deviation.

This series in a line: protein stability index of a GFP-peptide fusion (GPS, HEK-293T) (PSI 1-6); higher = more stable.
[1] abbreviates: treatment: DMSO, c terminus: a fixed tail appended.
Setting [2] is: treatment: MLN4924 1 uM, 8 h, c terminus: a fixed tail appended.
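Further: 24-mer peptide tiles fused after GFP, lentivirally expressed, FACS-sorted into six equal bins by GFP/DsRed ratio, decoded by Illumina sequencing, PSI is the read-weighted mean bin number.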

Turning to VVCGMFGFPGERTYNTKVYKMFAS [LOXL2], the protein stability index by setting is: under setting [1], 2.66 ± 1.1; under setting [2], 2.63 ± 0.2.
Turning to VVLKLFLSFSGSDVQNKLKESAQC [SNX8], the protein stability index stood at 2.8 ± 0.76 under setting [1] and 2.92 ± 0.52 under setting [2].
Turning to VVTLWYRAPEVLLQSTYATPVDMW [CDK4], the protein stability index is, setting by setting: under setting [1], 3.15 ± 0.61; under setting [2], 3.07 ± 0.68.
The sequence WEAKQEKIKSEEIEITFSYWDGSG [FAM50A] yielded a protein stability index under setting [1] of 2.59 ± 0.3 and a protein stability index under setting [2] of 2.6 ± 0.35.
On the same counts, the results for WGEMTLSLFSLLIAAAVYIMDTVG [SLC19A2] are 2.51 ± 0.44 and 2.46 ± 0.31.
WGHCEIRMRYLNGLDPEPLPLMDL [SPSB1]: the protein stability index came to 2.42 ± 0.59 under setting [1] and 2.36 ± 0.59 under setting [2].
On to WVCFIYTIMSLASLLFVVMFIPET [SLC2A12], for which the protein stability index under setting [1] worked out at 3.06 ± 0.83 and the protein stability index under setting [2] worked out at 2.74 ± 0.52.
Consider WVLSIDGENAGSLTHIEAQNKIRA [PDLIM7], for which the protein stability index was determined as 3.02 ± 0.33 under setting [1] and 3.28 ± 0.29 under setting [2].
In the same order, the values of WVNDPQRMDKRTLALLVLAHSSDV [GOLPH3L] are 2.19 ± 0.3 and 2.18 ± 0.2.
As for WVSTQLQATCNVHKSAFNDWFSGH [FADS1], the protein stability index worked out at 2.75 ± 0.82 under setting [1] and 2.43 ± 0.54 under setting [2].
In the same order, the values of WWALSTCGYFQVVNYTQGLWEKVM [SLC19A2] are 2.75 ± 1.3 and 2.45 ± 0.73.
On the same counts, the results for YDIAKHLTYENVERWLKELRDHAD [RAB11A] are 2.66 ± 0.36 and 2.77 ± 0.23.
YEHYERVENGDFNWIVPGKFLAFS [CDC14A] gave a protein stability index under setting [1] of 2.34 ± 0.16 and a protein stability index under setting [2] of 2.26 ± 0.29.
As to YESTLFEDQVPALEAPEDIGSTSE [MIA2], the protein stability index worked out at 5.55 ± 0.23 under setting [1] and 5.51 ± 0.33 under setting [2].
In the case of YGETDFHKQDGKAGLFSQEQYERN [TMEM40], the protein stability index came to 4.18 ± 0.16 under setting [1] and 4.72 ± 0.56 under setting [2].
For the sequence YGRDSFVRLLLEFKAEVDPLSDKG [ASB7], the protein stability index was determined as 2.65 ± 0.74 under setting [1] and 2.37 ± 0.28 under setting [2].
Regarding YKGPLLEEQALTKAAEGGLSSPEF [FAM98B], the protein stability index came to 4.41 ± 0.33 under setting [1] and 4.55 ± 0.27 under setting [2].
As for YKYGAIRDIDLKNRRGGPPFAFVE [SRSF1], the protein stability index runs as follows: under setting [1], 2.38 ± 0.31; under setting [2], 2.62 ± 0.36.
For YLIMLPFRFTYYTILDIFRFALRF [FAF2], the protein stability index is, setting by setting: under setting [1], 3.33 ± 0.26; under setting [2], 3.25 ± 0.18.
YLNEYEAEKIEYNESMKAYHNSPA [SMARCE1]: the protein stability index was determined as 3.95 ± 0.4 under setting [1] and 3.98 ± 0.31 under setting [2].
Take YLRFIVSRMKERAIDLNKKGKDNK [ZMYND11]: the protein stability index was 2.63 ± 0.7 under setting [1] and 2.05 ± 0.3 under setting [2].
YLYGILEERKNEMTQVITRTQEEK [TRIM55]: the protein stability index by setting is: under setting [1], 3.6 ± 0.15; under setting [2], 3.55 ± 0.31.
As to YNHQHKYFFLIGPPALLPLYFQWY [FADS1], the protein stability index came out at 3.18 ± 0.66 under setting [1] and 2.38 ± 0.32 under setting [2].
As for YNISEFTRRHPGGSRVISHYAGQD [FADS1], the protein stability index is 3.54 ± 0.15 under setting [1] and 3.42 ± 0.26 under setting [2].
YQAFRECTLETTVHASGWNKILVP [BCL2L13]: the protein stability index turned out to be 1.93 ± 0.33 under setting [1] and 2.32 ± 0.22 under setting [2].
As for YQGPGTRRLQEVLGVQTGGPGGRR [DYRK1B], the protein stability index is, setting by setting: under setting [1], 3.59 ± 0.39; under setting [2], 3.94 ± 0.36.
In the case of YRAALRSCSLVLEHQPDNIKALFR [FKBP8], the protein stability index under setting [1] was 2.17 ± 0.25 and the protein stability index under setting [2] amounted to 2.27 ± 0.037.
On the same counts, the results for YRDYGHSRRDESYSRGYRNRRSSR [RBMY1A1] are 4.75 ± 0.14 and 4.79 ± 0.12.
With YRGAVYADSGNFKRCINLWKYALD [FEM1C], the protein stability index runs as follows: under setting [1], 2.32 ± 0.08; under setting [2], 2.33 ± 0.18.
With YRQSSFPHCSDLMPSGSEEKILRE [KCNA4], the protein stability index is, setting by setting: under setting [1], 4.25 ± 0.29; under setting [2], 4.26 ± 0.14.
As to YRSLGSVQAPSYGARPVSSAASVY [KRT18], the protein stability index is 3.33 ± 0.23 under setting [1] and 3.17 ± 0.097 under setting [2].
As to YSAYIRRCACAASSDESPGSKCSP [TTC32], the protein stability index is, setting by setting: under setting [1], 2.25 ± 0.23; under setting [2], 2.85 ± 0.16.
For the sequence YSFRNPDVQSAIWRMLTGRRSLA [OR3A1], the protein stability index amounted to 2.44 ± 0.51 (treatment: DMSO, c terminus: native) and 2.65 ± 0.36 (treatment: MLN4924 1 uM, 8 h, c terminus: native).
Turning to YSGQITLLKLEQNTCSVITTLKGH [WDFY1], the protein stability index is, setting by setting: under setting [1], 2.82 ± 0.67; under setting [2], 2.38 ± 0.36.
With YSNLLVRDFRPTDQEEIKTLERYM [TENT5C], the protein stability index was found to be 3.08 ± 0.22 under setting [1] and 3.35 ± 0.36 under setting [2].
For YSRYLNEKAFSYRQMAFDFARVKK [SNAP91], the protein stability index by setting is: under setting [1], 2.28 ± 0.59; under setting [2], 2.7 ± 0.16.
In the same order, the values of YTEGISQRMRVPEKLKVAPPNADL [MFF] are 3.28 ± 0.4 and 3.75 ± 0.32.
With YVHDPECVATTGDITVSVSTSFLP [FBXO3], the protein stability index under setting [1] came to 2.46 ± 0.26 and the protein stability index under setting [2] came to 2.95 ± 0.15.
